The results in this text go back to the Immune Epitope Database (IEDB).

pIC50: −log10 of the molar value. Where only a bound is given, the exact number is not on record here.

For one test, the target named is HLA-A*02:01. The experiment in a line: IEDB peptide-MHC binding, purified MHC/competitive/radioactivity; ≥ and ≤ were set here for values at or beyond the usual limits of such assays. The note with it: source organism: Bordetella pertussis.
Turning to TLNASNLTL, the pIC50 was 5.35.
In the case of VIDGQKVLA, the negative-log IC50 (pIC50) is 4.45.

For the next test, the target named is HLA-B*07:02. Described as above. The conditions noted are these: source organism: Bordetella pertussis.
For GAPAAVSVL, the negative-log IC50 (pIC50) is 4.16.
As to HVRGMLVPV, the pIC50 was 5.21.

For another test, the target named is HLA-B*35:01. Described as above. The conditions noted are these: source organism: Bordetella pertussis.
For the sequence AAESTFESY, the negative-log IC50 (pIC50) was 4.35.
Still for that read-out and setting: next, HAEHEKDVR: 4.16; KAAKSVNLM: 4.30.
Still for that read-out and setting: next, LPTHLYKNF: 4.98.

Another test deals with HLA-B*44:03. Described as above. The conditions noted are these: source organism: Bordetella pertussis.
With AEATQLVTA, the negative logarithm of the IC50 (pIC50) was 5.66.
As for AESSEAMAA, the pIC50 is 5.12.
For FELGADHAV, the pIC50 was at most 4.11.
On the same count and under the same terms, next, IETGGARRF: 4.66.
Take VEVSSPPPV: the negative logarithm of the IC50 (pIC50) was 4.54.

For the next test, the target named is HLA-B*53:01. The description is as above. The note with it: source organism: Bordetella pertussis.
Turning to DASGQHRLW, the pIC50 is 4.59.
KPLADIAVI: the pIC50 is 4.80.
Turning to PAPTAPPMP, the negative-log IC50 (pIC50) is 4.27.
Consider YPALRAALI, for which the pIC50 is 5.02.

The next test deals with HLA-B*57:01. The description is as above. The note with it: source organism: Bordetella pertussis.
Regarding DASGQHRLW, the negative-log IC50 (pIC50) is at most 4.15.
For the sequence KGPKLAMPW, the negative logarithm of the IC50 (pIC50) was 5.31.
With RGWSIFALY, the pIC50 is 5.98.
For VSVKVAKKL, the pIC50 is 4.43.
